The record followed here is PMC9856783, “Identification and Characterization of Aptamers Targeting Ovarian Cancer Biomarker Human Epididymis Protein 4 for the Application in Urine”.

Data set [1] has as its target T1, Human epididymis protein 4 (HE4) (human, UniProt Q14508 31-124).
T1 sequence: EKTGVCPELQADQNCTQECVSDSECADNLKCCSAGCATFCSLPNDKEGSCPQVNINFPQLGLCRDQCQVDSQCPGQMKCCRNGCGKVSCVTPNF
The data set can be described thus: thermofluorimetric analysis (SYBR Gold); 1/125 artificial urine; HE4 up to 800 nM; 100 nM DNA, 0-800 nM HE4, 1/125 diluted artificial urine, 1x SYBR Gold, protein buffer (10.1 mM Na2HPO4, 137 mM NaCl, 2.7 mM KCl, 1.8 mM KH2PO4, 1 mM MgCl2); pH. The note with it: protein: commercial; tags: 6xHis; label: SYBR Gold dye (non-covalent).

Data set [2] has as its target T1, Human epididymis protein 4 (HE4). The data set can be described thus: thermofluorimetric analysis (SYBR Gold); preliminary data, urine; 100 nM DNA, 0-800 nM HE4, 1/125 diluted artificial urine, 1x SYBR Gold, protein buffer (10.1 mM Na2HPO4, 137 mM NaCl, 2.7 mM KCl, 1.8 mM KH2PO4, 1 mM MgCl2); pH. The conditions noted are these: protein: commercial; tags: 6xHis; label: SYBR Gold dye (non-covalent).

B1: Scramble aptamer DNA (ssDNA)
DNA: ATCGCGTCCGTCAATTACCTACGCTGCACCACTTATGAGCCGGTATCGCCATCCGTCAACTCACGCCTCC
For B1, the binding result in data set [1] is “no binding”.

B2: AHE2 (ssDNA)
DNA: TCGCACATTCCGCTTCTACCGCCAACATCGTACTCCATCTGCCACCCCCACGTAAGTCCGTGTGTGCGAA
For the molecule B2, the binding result in data set [2] is “no binding”.
